± gives the standard deviation.

We go through 72 sequences from the supplement of paper PMC10567573.

This series in a line: protein stability index of a GFP-peptide fusion (GPS, HEK-293T) (PSI 1-6); higher = more stable.
Where [1] appears, read: treatment: DMSO, c terminus: a fixed tail appended.
Where [2] appears, read: treatment: MLN4924 1 uM, 8 h, c terminus: a fixed tail appended.
Setting [3] is: treatment: DMSO, c terminus: native.
The mark [4] stands for this setting: treatment: MLN4924 1 uM, 8 h, c terminus: native.
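Note: 24-mer peptide tiles fused after GFP, lentivirally expressed, FACS-sorted into six equal bins by GFP/DsRed ratio, decoded by Illumina sequencing, PSI is the read-weighted mean bin number.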

Regarding AAARGGQCPGLGPAPTPTPPGRLG [ZBED3], the protein stability index under setting [1] is 4.36 ± 0.24 and the protein stability index under setting [2] worked out at 4.63 ± 0.34.
AAKKVAPLMAKAIRDYKGRFSRR [ELOA2]: the protein stability index stood at 2.79 ± 0.33 under setting [3] and 3.02 ± 0.62 under setting [4].
As to AALLGSNSESWGWDIGRGKLYHQS [SPSB2], the protein stability index reads like this: under setting [1], 2.6 ± 0.63; under setting [2], 3.06 ± 0.13.
Take AAPAVRASSSPVTLRQKTVDWRRV [SLA]: the protein stability index is, setting by setting: under setting [1], 3.2 ± 0.54; under setting [2], 3.17 ± 0.72.
As to ACIAYIRITQYLDAGGIPRTAQSE [CAMK2A], the protein stability index under setting [1] is 2.64 ± 0.42 and the protein stability index under setting [2] was found to be 2.81 ± 0.39.
For the sequence ADTTTGSAAGPPLSEDDKLQGAAS [EHMT1], the protein stability index under setting [1] was 5.46 ± 0.23 and the protein stability index under setting [2] amounted to 5.51 ± 0.18.
With AEEHREKLLKQMRILWKKIQENQR [TRIM43], the protein stability index is, setting by setting: under setting [1], 2.46 ± 0.24; under setting [2], 2.21 ± 0.18.
Consider AEETANLPPSPPPSPASEQTVTVE [MAP2], for which the protein stability index runs as follows: under setting [1], 5.05 ± 0.18; under setting [2], 5.18 ± 0.17.
In the case of AELVLLTLGQAWQGYVSDIRRFLS [DFFB], the protein stability index under setting [1] was 2.12 ± 0.17 and the protein stability index under setting [2] came out at 2.06 ± 0.21.
For AEVQAKLENAEVLELTVRRVQGVL [HES6], the protein stability index by setting is: under setting [1], 2.71 ± 0.38; under setting [2], 2.58 ± 0.25.
As for AFAQRPSSAPDLMCLSPDRKMEVE [CDC25B], the protein stability index is, setting by setting: under setting [1], 4.97 ± 0.3; under setting [2], 4.78 ± 0.14.
As to AFDYNSLSPTQRQKNFELAFTMAE [SMTNL2], the protein stability index runs as follows: under setting [1], 2.76 ± 0.3; under setting [2], 3.09 ± 0.29.
The matching figures for AFHVRRTNRVKECLAKGTFSDVTF [RHOBTB2]: 2.57 ± 0.24 and 2.78 ± 0.4.
As for AFYKEQLARLEERSSEFYRVTTEQ [CHCHD3], the protein stability index by setting is: under setting [1], 3.29 ± 0.12; under setting [2], 3.38 ± 0.34.
For AGADLEHESEGGRTPLMKAARAGH [ANKRD17] the same measures were 5.07 ± 0.29 and 4.95 ± 0.26.
Consider AGDEAVFAQYDSFHVDSAAEYYRL [TNXB], for which the protein stability index under setting [1] turned out to be 3.51 ± 0.38 and the protein stability index under setting [2] was 3.68 ± 0.13.
Take AGGEENMTETDAFYKREMFDPAEK [CASP6]: the protein stability index is, setting by setting: under setting [1], 5.13 ± 0.32; under setting [2], 5.37 ± 0.3.
Take AGTKVFEVPEMSPVTCCDVSSNNR [TLE6]: the protein stability index is, setting by setting: under setting [1], 4.13 ± 0.26; under setting [2], 4.17 ± 0.33.
For AHQHRDKMQQSKNQVVSSTNGELN [CSNK1G3], the protein stability index is, setting by setting: under setting [1], 5.02 ± 0.42; under setting [2], 5.1 ± 0.25.
As for AIGVSISLSSIATCVYIAEIAPQH [SLC2A12], the protein stability index is, setting by setting: under setting [1], 3.17 ± 0.13; under setting [2], 3.34 ± 0.38.
For the sequence AIKEMIENCLDAKSTSIQVIVKEG [MLH1], the protein stability index reads like this: under setting [1], 2.79 ± 0.19; under setting [2], 2.74 ± 0.22.
As to AIVGGMALGVAGLAGLIGLAVSKS [FIS1], the protein stability index reads like this: under setting [1], 3.38 ± 0.82; under setting [2], 3.12 ± 0.51.
In the case of AKGNTALHDCAESGSLEILQLLLG [FEM1A], the protein stability index amounted to 2.41 ± 0.23 under setting [1] and 2.16 ± 0.26 under setting [2].
For AKQLQAVKRKIRDESLCPQHHEAL [TRIM39] the same measures were 3.99 ± 0.2 and 3.97 ± 0.19.
For ALAPKQELPSALESHEVPGTLSMG [ZNF24] the same measures were 4.59 ± 0.25 and 4.75 ± 0.3.
Regarding ALGPLRTPAPPLWIGLFLVATGSQ, the protein stability index by setting is: under setting [1], 2.64 ± 0.57; under setting [2], 2.27 ± 0.14.
On to ALLESSLRQAQQNMDPKAAEEEEE [CCND1], for which the protein stability index was 5.28 ± 0.29 under setting [1] and 5.42 ± 0.25 under setting [2].
For ALQEKLWNVAAPLYLKQSDLASAA [INTS4], the protein stability index turned out to be 2.31 ± 0.17 under setting [1] and 2.27 ± 0.3 under setting [2].
Regarding ALVKEREKQLAKKEQSKELQMKLE [FAM50A], the protein stability index by setting is: under setting [1], 4.87 ± 0.076; under setting [2], 4.64 ± 0.37.
The matching figures for AMGDHSKKKPGTAMCVGCGSQIHD [ISL2]: 4.18 ± 0.32 and 4.3 ± 0.26.
With AMLREKFPEFCSSPSPPVEVKIEE [INTS3], the protein stability index was 4.51 ± 0.3 under setting [1] and 4.65 ± 0.12 under setting [2].
For ANAQIQILTRSWEEVSTLNAQIPE [CD207] the same measures were 3.52 ± 0.18 and 3.53 ± 0.2.
For APEYFEKNEPYLEAACNDVDRWPA [DENND6A] the same measures were 4.59 ± 0.29 and 4.47 ± 0.38.
As for APPSPRDISMEIDSPENMMRHIRF [CCDC6], the protein stability index stood at 3.51 ± 0.28 under setting [1] and 3.65 ± 0.26 under setting [2].
With APQGGMAALNMSLGMVTPVNDLRG [ADD1], the protein stability index was 3.83 ± 0.23 under setting [1] and 3.77 ± 0.097 under setting [2].
As for AQDLMDGLPPGDSNQLAWFDTDL [CTNNB1], the protein stability index under setting [3] came to 5.29 ± 0.094 and the protein stability index under setting [4] stood at 5.09 ± 0.081.
Consider AQSEAEKKLKKDDKKKELQELNEL [ZC3H15], for which the protein stability index is, setting by setting: under setting [1], 5.56 ± 0.23; under setting [2], 5.53 ± 0.21.
For the sequence AQTFIALCATDFKFAMYPPSMIAT [CCND2], the protein stability index reads like this: under setting [1], 2.75 ± 0.71; under setting [2], 3.04 ± 0.62.
As to AQVPDTRWSRVGGQRFYSRVLSPL, the protein stability index reads like this: under setting [1], 2.41 ± 0.69; under setting [2], 2.75 ± 0.43.
Turning to ARFITDFLDNGYGHCLLDKPEAPL [ADAMTS4], the protein stability index is, setting by setting: under setting [1], 2.19 ± 0.2; under setting [2], 2.01 ± 0.22.
Consider ASAETLPAGFRVSTLGTLQPPPAP [PPFIA4], for which the protein stability index reads like this: under setting [1], 3.94 ± 0.35; under setting [2], 4.06 ± 0.23.
For the sequence ASDYSKKSNVLKLKTADWRVFLFQ [PSD2], the protein stability index is 2.12 ± 0.42 under setting [1] and 2.23 ± 0.19 under setting [2].
As to ASHNGISYKDLDVIFGVELPGNEE [TENT5D], the protein stability index reads like this: under setting [1], 4.03 ± 0.16; under setting [2], 4.01 ± 0.13.
Take ASLKGYQWLKDKILSEEGRRQQAK [KCNAB2]: the protein stability index reads like this: under setting [1], 3.69 ± 0.18; under setting [2], 3.67 ± 0.21.
For ASVLLQAVLYPRFMGTISDVKTNV [CD207] the same measures were 2.76 ± 0.38 and 2.69 ± 0.41.
The matching figures for ATADFADVADDFENYHKLRRSSSK [NETO1]: 4.99 ± 0.096 and 5.196 ± 0.05.
Turning to ATKKLGFKHPVIGVHVRRTDKVGT [FUT8], the protein stability index runs as follows: under setting [1], 3.12 ± 0.091; under setting [2], 3.15 ± 0.21.
In the case of ATTYKHGVLTRKTHADMDGKRTPR [PSD2], the protein stability index runs as follows: under setting [1], 4.44 ± 0.16; under setting [2], 4.63 ± 0.26.
Regarding AVCLLGVGTMVGADILAGREDNSG [SLC35F2], the protein stability index was 3.17 ± 0.5 under setting [1] and 3.11 ± 0.2 under setting [2].
Consider AVLFTGIVALYIASGLTGFIGLEV [ATL3], for which the protein stability index under setting [1] came out at 3.49 ± 0.43 and the protein stability index under setting [2] was 3.52 ± 0.35.
Turning to AVLPTAFRVAKKRAPKVLGTTLVV [GDAP1], the protein stability index by setting is: under setting [1], 2.18 ± 0.2; under setting [2], 2.15 ± 0.2.
For AWLNEHRKNPYPTKGEKIMLAIIT [IRX6] the same measures were 2.7 ± 0.42 and 2.51 ± 0.41.
CAECSQYLDETCTCFVRDGKTYCK [ISL2]: the protein stability index under setting [1] was 4.98 ± 0.29 and the protein stability index under setting [2] was 4.74 ± 0.37.
With CCAAPGPHVALAVRYNRVGILRRI [ANKRD9], the protein stability index by setting is: under setting [1], 2.37 ± 0.26; under setting [2], 2.49 ± 0.2.
Regarding CCINSHCGWPRGKDAPCYESDTDI [DRICH1], the protein stability index is, setting by setting: under setting [1], 2.94 ± 0.3; under setting [2], 3.02 ± 0.29.
As for CCSSADICPKCWTLMTMAIRIIDR [PRIM1], the protein stability index under setting [1] came to 2.25 ± 0.18 and the protein stability index under setting [2] amounted to 2.44 ± 0.55.
CERHEKGVLHKHQRALHKYSLMKR [SNX8]: the protein stability index came out at 3.56 ± 0.29 under setting [1] and 3.8 ± 0.31 under setting [2].
For CEVIFCVFIFYYVVEEILELHIHR [PKD2L1], the protein stability index by setting is: under setting [1], 3 ± 0.52; under setting [2], 3.07 ± 0.11.
As for CFVLGFFYPVMLILFLVIGGMLNF [SOAT2], the protein stability index came to 3.27 ± 0.52 under setting [1] and 3.53 ± 0.61 under setting [2].
For CLGALCENTCLLRGFSGGILAFLV [TSPAN10], the protein stability index by setting is: under setting [1], 2.34 ± 0.57; under setting [2], 2.55 ± 0.33.
As to CMKIPTGQEYAAKIINTKKLSARD [CAMK2D], the protein stability index reads like this: under setting [1], 3.7 ± 0.69; under setting [2], 3.83 ± 0.42.
In the case of CPRIAPADSGRYRASPTRTAPLPM [ELOA2], the protein stability index was 3.63 ± 0.17 under setting [1] and 3.76 ± 0.41 under setting [2].
CPTPARLATTEKKTEQQRRREKAV [NOP53]: the protein stability index came out at 5.19 ± 0.27 under setting [1] and 5.28 ± 0.24 under setting [2].
As for CRPLLPSCTTRLCQEEQLRSHENK [PSD2], the protein stability index runs as follows: under setting [1], 4 ± 0.13; under setting [2], 3.88 ± 0.34.
The matching figures for CRQRLIFEQTPALTKHEWTEALGC [ZNF8]: 2.38 ± 0.2 and 2.42 ± 0.26.
As for CRYPYEYEGGHIKGAVNLHMEEEV [CDC25A], the protein stability index by setting is: under setting [1], 3.8 ± 0.34; under setting [2], 3.7 ± 0.33.
Take CSECGESFSRSSRLMSHQRTHTG [ZNF263]: the protein stability index runs as follows: under setting [3], 3.02 ± 0.6; under setting [4], 3.53 ± 0.95.
CSSCQRSWASAQVQILCHTYWEHW [RTP4]: the protein stability index is, setting by setting: under setting [1], 2.3 ± 0.52; under setting [2], 2.36 ± 0.28.
The matching figures for CSSSTRSVLKRPERSQEESPPGST [CDC25A]: 5.17 ± 0.21 and 4.95 ± 0.34.
Turning to CYMATTKSQTACLPFVLAAAVSRK [EHMT1], the protein stability index by setting is: under setting [1], 2.14 ± 0.3; under setting [2], 2.15 ± 0.15.
As for DCSEEYLERQLQAEFIESGQYRAN [TAF7L], the protein stability index runs as follows: under setting [1], 4.09 ± 0.35; under setting [2], 4.3 ± 0.12.
In the case of DDEEFEYRHVMLPKDIAKLVPKTH [CKS1B], the protein stability index under setting [1] was found to be 4.38 ± 0.23 and the protein stability index under setting [2] worked out at 4.39 ± 0.32.
